Source: patent publication US7790682B1, “Engineered human acidic fibroblast growth factors and associated methods” (The Florida State University Research Foundation, Inc., priority 2003, dated 2010)

How the values were obtained:
[1] = tested on: NIH 3T3 fibroblasts; test: Cell proliferation (mitogenic activity) assay; format: cell-based; conditions: NIH 3T3 fibroblasts; for EC50 (effective concentration for 50% maximal stimulation): 48 hours
Procedure: NIH 3T3 fibroblasts were initially plated in Dulbecco's modified Eagle's medium (DMEM) (American Type Culture Collection, Manassas Va.) supplemented with 10% (v/v) newborn calf serum (NCS) (Sigma, St. Louis Mo.), 100 units of penicillin, 100 μg streptomycin, 0.25 μg Fungizone™ and 0.01 mg/ml gentamicin (Gibco, Carlsbad Calif.) (“serum-rich” medium) in T75 tissue culture flasks (Fisher, Pittsburgh Pa.). The cultures were incubated at 37° C. and all cell growth was performed with 5% CO2 supplementation. At approximately 80% cell confluence, the cells were washed with 5 ml cold 0.14M NaCl, 5.1 mM KCl, 0.7 mM Na2HPO4 and 24.8 mM Trizma® base, pH 7.4 (TBS) and subsequently treated with 5 ml of a 0.025% trypsin solution (Invitrogen Corp., Carlsbad Calif.). Cell synchronization was initiated by serum starvation in DMEM with 0.5% NCS, 100 units of penicillin, 100 μg streptomycin, 0.25 μg Fungizone™ and 0.01 mg/ml gentamicin (“starvation” medium). The cells were seeded in T25 tissue culture flasks (Fisher, Pittsburgh, Pa.) at a cell density of 3.0×10^4 cells/cm^2 (representing ˜20% confluence). Duplicate flasks were used for each protein concentration. Cultures were incubated for 48 hours at 37° C., the medium was then decanted and replaced with fresh medium supplemented with the appropriate concentration of FGF-1 polypeptide, and incubated for an additional 48 hours. After this incubation, the medium was decanted and the cells were washed with 1 ml cold TBS pH 7.4. 1 ml of 0.025% trypsin was then added to release the cells from the flask surface, and 2 ml of serum-rich medium were added to dilute and inhibit the trypsin. The cells were counted using a hemocytometer (Hausser Scientific Partnership, Horsham Pa.). Experiments were performed in quadruplicate and the cell densities were averaged. The relationship between the cell number and log concentration of added growth factor was fit to a sigmoidal function.
Mitogenic activity towards NIH 3T3 fibroblasts was determined for WT*, SYM5, SYM5Δ104-106, SYM5Δ120-122, and SYM6ΔΔ mutants. […] The NIH 3T3 fibroblast proliferative activity of WT* FGF-1 yielded an effective concentration for 50% maximal stimulation (EC50) of 60 ng/ml (FIG. 3).

[2] = Folding and unfolding kinetics (Chevron plot, stopped-flow CD, GuHCl); format: physicochemical; conditions: for kf: folding rate constant extrapolated to 0M GuHCl; for kf / ku: global Chevron fit; for ΔΔG‡-D / ΔΔG‡-N: in reference to WT*; for ΔΔG‡-D: positive value = decrease in folding activation barrier; for ΔΔG‡-N: positive value = decrease in unfolding activation barrier; for mf: slope of ln(kf) vs GuHCl; for mu: slope of ln(ku) vs GuHCl; for ku: unfolding rate constant extrapolated to 0M GuHCl
Procedure: Due to signal-to-noise considerations, relatively high protein concentrations (>100 μM) of FGF-1 were required for kinetic studies monitored by CD. At these concentrations protein precipitation occurred in ADA buffer. Therefore, a different buffering system was chosen for the kinetic studies to permit higher protein concentrations without precipitation. Protein samples were dialyzed against 50 mM sodium phosphate, 100 mM NaCl, 10 mM ammonium sulfate, 2 mM DTT, and typically 2.5, 3.0 or 3.8M GuHCl pH 7.5 overnight at 298K prior to data collection (higher concentrations of GuHCl were required to ensure complete denaturation for some stabilizing mutations).
Protein samples were degassed for 10 minutes prior to analysis. Refolding was initiated by a 1:10 dilution of protein solutions into 50 mM sodium phosphate, 100 mM NaCl, 10 mM ammonium sulfate, 2 mM DTT pH 7.5 containing either 0.1M or 0.05M increments of GuHCl up to the midpoint of denaturation. All data were collected using an Aviv model SF305 stopped flow system. Data collection times for each protein were designed to quantify the CD signal over 5 half-lives, or >96% of the total expected amplitude.
Protein samples (300 μM) were dialyzed against 50 mM sodium phosphate, 100 mM NaCl, 10 mM ammonium sulfate, 2 mM DTT pH 7.50 buffer overnight at 298K, and degassed for 10 min prior to data collection. Unfolding was initiated by 1:10 dilution of the native protein into 50 mM sodium phosphate, 100 mM NaCl, 10 mM ammonium sulfate, 2 mM DTT pH 7.5 buffer with final GuHCl concentration in the range of 1.5 to 5.5M in 0.5M increments. The unfolding process was quantified by following the change in CD signal at 227 nm, and data collection times for each protein were designed so as to monitor the CD signal over 3 to 4 half-lives, or >93% of the total expected amplitude.
Triplicate scans were collected for both folding and unfolding kinetic data at each GuHCl buffer condition. In all cases, data from at least three separate experiments were averaged. The kinetic rates and amplitudes versus denaturant concentration were calculated from the time dependent change in CD signal using a single exponential model: I(t)=Aexp(−kt)+C (3) where I(t) is the intensity of CD signal at time t, A is the corresponding amplitude, k is the observed rate constant for the reaction and C is a constant that is the asymptote of the CD signal. Folding and unfolding rate constant data were fit to a global function describing the contribution of both rate constants to the observed kinetics as a function of denaturant (“Chevron” plot): In(kobs)=In(kf0exp(mkfD)+ku0exp(mkuD)) (5) where kf0 and ku0 are the folding and unfolding rate constants, respectively, extrapolated to 0M denaturant, mkf and mku are the slopes of the linear functions relating In(kf) and In(ku), respectively, to D, the denaturant concentration. Changes in activation barriers upon mutation were calculated using a modified version of transition state theory: ΔΔG‡-D=RTIn(kf Mut/kfWT*) and ΔΔG‡-N=RTIn(ku Mut/kuWT*) (6) where kf Mut, ku Mut, kf WT* and ku WT* are the folding and unfolding rates for mutant and WT*, respectively, in water. ΔΔG‡-D, and ΔΔG‡-N are the changes in the activation barrier for folding and unfolding, respectively, between mutation and WT*. A positive value for ΔΔG‡-D or ‡‡G‡-N indicates a decrease in the associated activation barrier energy. Isothermal Titration Calorimetry.
Due to the relatively weak differential CD signal of native and denatured FGF-1, the folding kinetics study required relatively high protein concentrations (>5 mg/ml). […] Thus, the refolding rate constants were not obtainable below certain denaturant concentrations for these mutants. […] The SYM6Δ120-122 mutant is substantially destabilized relative to the WT* protein (see Table II) and presents a relatively short “folding arm” in the Chevron plot, for this reason there is greater uncertainty associated with the folding kinetics determined for this mutant. […]

Row | Molecule | EC50 (effective concentration for 50% maximal stimulation) [1] | kf [2] | ΔΔG‡-D [2] | ΔΔG‡-N [2] | mf [2] | mu [2] | ku [2] | mitogenic activity in comparison to WT* (in words) [1] | folding behavior ([2]; all denaturant concentrations evaluated)
1 | WT*: Wild type (his-tagged) 140 amino acid form of human FGF-1, SEQ ID NO: 4 [reference compound] | 0.06 µg/mL | 3.31 s⁻¹ | 0 kcal/mol | 0 kcal/mol | -6.05 M⁻¹ | 0.47 M⁻¹ | 0.69 1 × 10^−3 sec^−1 |  | 
2 | SYM6/ΔΔ: SYM6 FGF-1 mutant plus both Δ104-106 and Δ120-122 deletion mutations, SEQ ID NO: 1 (protein, Human FGF-1 mutant SYM6DD) FNLPPGNYKKPKLLYCSNGGHFLRILPDGTVDGTRDRSDQHIQFQLSAESVGEVYIKSTETGQYLAIDTDGLVYGSQTPNEECLFLERLEENHYNTYISKKHGWFLGIKKNGSVKGTHYGQKAILFLPLPVSSD | 0.00084 µg/mL | 74.0 s⁻¹ | 1.84 kcal/mol | 0.602 kcal/mol | -4.40 M⁻¹ | 0.69 M⁻¹ | 1.90 1 × 10^−3 sec^−1 | almost two orders of magnitude more potent | single exponential folding behavior
3 | SYM5/Δ120-122: SYM5 FGF-1 mutant plus Arg119→Gly/ΔGly120/ΔPro121/ΔArg122, SEQ ID NO: 2 (protein, Human FGF-1 mutant SYM5D120-122) FNLPPGNYKKPKLLYCSNGGHFLRILPDGTVDGTRDRSDQHIQFQLSAESVGEVYIKSTETGQYLAMDTDGLVYGSQTPNEECLFLERLEENHYNTYISKKHAEKNWFLGIKKNGSVKGTHYGQKAILFLPLPVSSD | 0.0021 µg/mL | 7.29 s⁻¹ | 0.468 kcal/mol | 0.502 kcal/mol | -6.44 M⁻¹ | 0.80 M⁻¹ | 1.60 1 × 10^−3 sec^−1 |  | 
4 | SYM5: FGF-1 core mutant Leu44→Phe/Leu73→Val/Val109→Leu/Leu111→Ile/Cys117→Val (protein, UniProt P05230 16-155, looked up, variant L44F L73V V109L L111I C117V) Fibroblast growth factor 1: FNLPPGNYKKPKLLYCSNGGHFLRILPDGTVDGTRDRSDQHIQFQLSAESVGEVYIKSTETGQYLAMDTDGLVYGSQTPNEECLFLERLEENHYNTYISKKHAEKNWFLGIKKNGSVKRGPRTHYGQKAILFLPLPVSSD |  | 2.57 s⁻¹ | -0.151 kcal/mol | -0.6 kcal/mol | -6.44 M⁻¹ | 0.57 M⁻¹ | 0.25 1 × 10^−3 sec^−1 | essentially identical results as WT* | 
5 | SYM5/Δ104-106: SYM5 FGF-1 mutant plus Ala103→Gly/ΔGlu104/ΔLys105/ΔAsn106 (protein, UniProt P05230 16-155, looked up, variant L44F L73V V109L L111I C117V A103G del104-106) Fibroblast growth factor 1: FNLPPGNYKKPKLLYCSNGGHFLRILPDGTVDGTRDRSDQHIQFQLSAESVGEVYIKSTETGQYLAMDTDGLVYGSQTPNEECLFLERLEENHYNTYISKKHGWFLGIKKNGSVKRGPRTHYGQKAILFLPLPVSSD | 0.115 µg/mL | 2.00 s⁻¹ | -0.299 kcal/mol | -0.0598 kcal/mol | -3.70 M⁻¹ | 0.95 M⁻¹ | 0.62 1 × 10^−3 sec^−1 | approximately two-fold less mitogenic activity | 
